Non-standard residues stand in square brackets, D forms with d. No end group written: not given here. pG = not defined here
How the values were obtained:
[1] = dynamic light scattering, size and zeta potential of peptide/siRNA complexes; type: physicochemical; conditions: LHRH-DIV3W peptide/siRNA complexes
Procedure: Dynamic Light Scattering and Transmission Electron Microscopy. DIV3 (X)-siNT complexes were prepared at 2 mg/mL in RNase-free water. Hydrodynamic size and surface charge of the peptide/siRNA complexes were determined using a Nano ZS Zetasizer (Malvern Pananalytical, Malvern, UK). All data were recorded using Malvern's Zetasizer software.
To determine nanoparticle size and zeta potential, peptides resuspended in RNase-free water (10 μM) were thawed and kept on ice prior to complexation with 10 μM of siNT in RNase-free water and incubated for 20 minutes at room temperature to form DIV3W-siNT and LHRH-DIV3W-siNT complexes. Peptide complexes were prepared at 2 mg/mL in RNase-free water. Hydrodynamic size and surface charge analysis was conducted using a Malvern Nano ZS Zetasizer (Malvern Panalytical, Malvern, UK). All data was analyzed using Malvern's Zetasizer software.

[2] = gel assay of siRNA protection from degradation in 50% serum; type: in vitro ADME; conditions: 50% FBS, 1 hour, several N:P ratios
Procedure: Gel Shift Assays. DIVA3, DIV3H, and DIV3W (all three denoted as DIV3 (X)) peptides suspended in RNase-free water (10 μM), were thawed, and kept on ice prior to complexation with 10 μM of negative control siGENOME non-targeting siRNA #5 (siNT, GE Healthcare Dharmacon, Lafayette, CO) in RNase-free water and incubated for 20 minutes at room temperature to allow the formation of DIV3 (X)-siNT complexes. Various molar ratios of peptides were complexed with siNT at increasing N:P molar ratios to determine the minimum molar ratio necessary to completely complex free siRNAs using an electrophoretic mobility shift assay. To determine the ability of each peptide variant to protect siRNAs from degradation, DIV3 (X)-siNT complexes or siNT alone was left untreated or incubated with either 50% v/v FBS or 5 μg/mL RNase A at 37° C. for one hour. Next, complexes were dissociated using 6% sodium dodecyl sulfate (SDS). Samples were added to a 2% agarose gel and run at 100 V. Gels were stained with ethidium bromide, destained with Milli-Q water, and imaged using a ChemiDoc XRS imager (Bio-Rad, Hercules, CA).
Characterization of Nanoparticle Size and Stability. To determine the minimum molar ratio necessary to completely complex free siRNAs, increasing N:P molar ratios of LHRH, DIV3W, and LHRH-DIV3W peptide were complexed with siRNAs and electrophoresed using a electrophoretic mobility shift assay. Molar ratios, shown as N:P, are representations of the molar amine peptide content in relation to 1 mole of phosphate group siRNA content. To determine the ability of the peptides to protect siRNAs from serum- or RNase-mediated degradation, LHRH and LHRH-DIV3W complexes were formed in RNase-free water with siNT at increasing N:P molar ratios and incubated at 37° C., 5% CO2, 50% v/v FBS, 5 μg/mL RNase A, or 50% v/v RNase free water for 1 hour. Peptide/siRNA complexes were dissociated using 6% sodium dodecyl sulfate (SDS) prior to electrophoresis in a 2% agarose gel run at 100 V. Gels were stained with ethidium bromide, washed with Milli-Q water, and imaged with a BioRad ChemiDoc XRS imager (BioRad, Hercules, CA).
Peptides VA-LD and GF-LD, comprising the cleavable linker VA or GLFG, respectively, between the LHRH target sequence and the DIV3W peptide, and non targeting siRNA were electrostatically complexed at increasing N:P ratios then subjected to agarose gel electrophoresis to determine optimal siRNA binding for each peptide. […] Peptide-siRNA nanocomplexes at increasing N:P ratios for peptides for VA-LD (FIG. 30A) and GF-LD (FIG. 30C) were incubated in either Rnase A enzyme or in 50% fetal bovine serum (FBS) for 1 h, dissociated using SDS then subjected to gel electrophoresis to visualize siRNA bands. Gels showing increasing N:P ratios of peptide:siRNA for VA-LD (FIG. 30B) and GF-LD (FIG. 30D) from 20:1 to 80:1 N:P; white bands are indicative of intact siRNA

CK2α protein = test: Western blot of CK2α in OVCAR3 cells; type: cell-based; conditions: OVCAR3, 48 hours, 50:1 N:P ratio
Procedure: Western Blot. […] Cells were washed and treated with DIV3 (X)-siRNA complexes as previously described. Following the 48-hour treatment, cells were washed with 1× PBS and lysed with cold radioimmunoprecipitation assay (RIPA) buffer supplemented with protease inhibitor cocktail (Thermo Fisher). Protein concentrations were determined via bicinchoninic assay according to the manufacturer's protocol and absorbance was read at 562 nm. Equivalent protein concentrations for each treatment condition were separated by SDS-PAGE on a BioRad Stain-Free 10% gel according to BioRad protocols and transferred to a Stain-Free PVDF membrane using a wet transfer system. The PVDF membrane was cut at appropriate molecular weight intervals consistent with protein weights, then analyzed and blocked for 1 hour with 5% non-fat dried milk solution in 1× Tris-HCl-buffered-saline-0.1% Tween 20 (TBST) at room temperature. Blots were probed at 4° C. overnight with rabbit monoclonal anti-CK2α antibody (1:1000, Invitrogen) or mouse monoclonal anti-β-actin (1:10,000, Sigma-Aldrich, St. Louis, MO). […] Five additional washes with 1× TBST were performed and protein bands were detected with SuperSignal West Pico Plus Chemiluminescent Substrate (Thermo Fisher) and imaged using a BioRad ChemiDoc Imaging System.

Procedure for CAOV3 cells: Cells were seeded at 10,000 cells per well with complete culture media in a 96-well plate and incubated overnight to allow the cells to attach. DIV3 (X) peptides were complexed with siNT at 40:1 to 80:1 N:P molar ratios. DIV3 (X)-siNT complexes were incubated with OVCAR3 or CAOV3 cells at a final concentration of 100 nM siRNA and 10% FBS for 24 hours. Media was then aspirated, cells were washed with 1× phosphate-buffered saline (PBS), and fresh media with 10% FBS was added to each well and incubated another 24 hours.
Viability was measured using an MTS Assay performed with CellTiter 96 AQueous One Solution Cell Proliferation Assay (Promega, Madison, WI). Assay reagent was added according to the manufacturer's protocol, and cells were incubated for 4 hours. Absorbance was read using a BioTek Synergy LX (BioTek, Winooksi, VT) plate reader at 490 nm. […]
OVCAR3 or CAOV3 cells were seeded at 10,000 cells per well with complete culture media in a transparent 96-well plate and incubated overnight to allow the cells to attach. […] After 24 hours of incubation the media was exchanged and after another 24-hour incubation at 37° C. in 5% CO2, viability was measured using an MTS Assay performed with the CellTiter 96 AQueous One Solution Assay (Promega, Madison, WI). […] Absorbance was read using a BioTek Synergy LX (BioTek, Winooksi, VT) plate reader at 490 nm.

Substance: pGHWSY-(d) LLRPGGGGGWEADIVADIVWDIVADIVAGGG-(d) RRRRRRRRR ([pG]HWSY[dL]LRPGGGGGWEADIVADIVWDIVADIVAGGG[dR][dR][dR][dR][dR][dR][dR][dR][dR]; reading uncertain) [LHRH-DIV3W]
- nanoparticle size (DLS) [1]: 154.2±15.9 nm
- polydispersity index [1]: 0.18
- zeta potential (positive charge) [1]: 33.37±2.00 mV
- intact siRNA after incubation in 50% serum [2]: fully protect siRNA cargo from degradation
- cytotoxicity of peptide alone (CAOV3 cells): did not cause cytotoxic effects
- CK2α protein expression (CK2α protein): slight reduction in protein band intensity
- cytotoxicity of peptide alone (OVCAR3 cells): did not cause cytotoxic effects
- viability (OVCAR3 cells): 109.66%+0.8%
